Test results as given in patent US20250195685A1 (CAPSTAN THERAPEUTICS, published 2025).

B1: CBD1017ch whole antibody (chimeric CT8 antibody) (antibody, V domains shown)
VH: EVQLQQSGPELVKPGASVKISCKASRYTFTDYNLHWVKLSHEKSLEWIGFIYPYNGGTGYNQKFKNKAKLTVDYSSSTAYMELRSLTSVDAAVYYCARDHRYNEGVSFDYWGQGTTLTVSS
VL: NIVLTQSPASLAVSLGQRATISCRASESVDGFGNSFMNWYQQKPGQSPKLLIYLASNLESGVPARFSGSGSRTDFTLTIDPVEADDAATYYCQQNNEDPYTFGGGTKLEIK
notes: Chimeric antibody comprising the variable regions of the donor antibody CT8; detected with anti-human Fc
B2: CBD1033 whole antibody, human IgG1 with Fc-silencing mutations L234A, L235A and P329A (CBD1033-hIgG1-LALAPA) (antibody, V domains shown)
VH: QVQLVQSGAEVKKPGASVKVSCKASRYTFTDYNLHWVRQAPGQGLEWMGFIYPYNGGTGYAQKFQGRVTMTVDTSTSTAYMELSSLRSEDTAVYYCARDHRYNEGVSFDYWGQGTTVTVSS
VL: DIQLTQSPSSLSASVGDRATITCRASESVDGFGNSFMNWYQQKPGKAPKLLIYLASNLESGVPSRFSGSGSGTDFTLTISSVQPEDFATYYCQQNNEDPYTFGQGTKLEIKR
notes: On tLNPs the antibody was SATA-modified or AJICAP-thiolated (CBD1033.29) and conjugated to the LNP; also called CBD1033.3; CBD1033 IgG1

Legend:
[1] = target: T1, human CD8 on cells (CD8-overexpressing HEK293T cells, SupT1, HPB-ALL, human T cells, transfected HEK293 of … (human, UniProt P01732 22-235)); assay: flow cytometry, Human Expanded T cells Donor 5, gated on live CD8 T cells (via CD3+CD4-)
T1 construct: whole, on cells; also called cell surface CD8
T1 sequence (P01732 22-235): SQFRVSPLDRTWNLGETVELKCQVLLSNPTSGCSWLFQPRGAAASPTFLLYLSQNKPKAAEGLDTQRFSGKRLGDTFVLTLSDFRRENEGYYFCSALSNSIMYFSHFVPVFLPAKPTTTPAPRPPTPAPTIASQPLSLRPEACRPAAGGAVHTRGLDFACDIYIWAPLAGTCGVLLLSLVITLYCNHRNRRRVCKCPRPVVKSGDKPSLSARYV
Procedure: (§1) To obtain the results shown in FIG. 8A and FIG. 8B, 5×10⁴ expanded primary T cells (human, cynomolgus macaque or rhesus monkey) were thawed and transferred to a V bottom 96-well culture plate (Corning). Cells were washed twice with Cell Staining buffer (#420201, Biolegend). Each anti-CD8α antibody was diluted in four-fold antibody titration series from 60 μg/mL to 0.057 ng/mL into Cell Staining buffer. Cells were stained with each diluted antibody solution for 30 minutes on ice. Cells were then washed three times with Cell Staining buffer and primary antibody binding was detected by staining with anti-human Fc BV421 conjugate antibody (#410704, Biolegend) at 1:200 dilution for 30 minutes on ice. […] Flow cytometry data was analyzed by Flowjo 10 (Becton, Dickinson & Company) to measure the geometric median fluorescence intensity (gMFI) of the on-cell binding from each antibody. The gMFI values were normalized with the gMFI measured in the sample stained with only the secondary detection antibody and plotted against the concentration of the added antibodies. The binding curves were constructed using Graphpad Prism software, and EC₅₀ values were determined by non-linear curve fitting.

[2] = target: T2, cynomolgus macaque CD8 on expanded primary T cells (cynomolgus macaque); assay: flow cytometry, Cyno Expanded T cells Donor 10, gated on live CD8 T cells (via CD3+CD4-)
T2 construct: also called CD4- CD8+ cynomolgus macaque T cells
Procedure: as §1

[3] = target: T1, human CD8 on cells (CD8-overexpressing …); assay: flow cytometry, Human Expanded T cells Donor 6, gated on live CD8 T cells (via CD3+CD4-)
Procedure: as §1

[4] = target: T3, rhesus macaque CD8 on expanded primary T cells (rhesus macaque); assay: flow cytometry, Rhesus Expanded T cells Donor 9, gated on live CD8 T cells (via CD3+CD4-)
T3 construct: also called CD4- CD8+ rhesus T cells
Procedure: as §1

[5] = target: T4, human CD8αα homodimer, recombinant protein (Acro Biosystems) (human, UniProt P01732 22-182); assay: BLI steady state analysis, whole antibody, sample stressed at pH 8.5, 40 °C, 7 days
T4 construct: also called CD8αα antigen; biotinylated CD8α recombinant protein (CDA-H82E3)
T4 sequence (P01732 22-182 limits assumed): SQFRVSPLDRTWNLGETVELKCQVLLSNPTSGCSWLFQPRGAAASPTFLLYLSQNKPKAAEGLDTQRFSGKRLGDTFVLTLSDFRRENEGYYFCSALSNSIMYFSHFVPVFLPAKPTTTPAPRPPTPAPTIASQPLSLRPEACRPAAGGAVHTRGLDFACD
Procedure: (§2) To assess affinity of whole antibodies, steady state analysis was used as the bivalent nature of both whole antibody and CD8α complicates kinetic analysis. 50 nM CD8α-His (that is, CD8α with a C-terminal oligohistidine tag; Acro) was immobilized on Ni-NTA sensor probes. Binding was analyzed with a three-fold antibody dilutions series: 60 nM, 20 nM, 6.67 nM, 2.22 nM, 0.74 nM, and 0.25 nM. The antigen-loaded sensors were incubated in the diluted solutions to capture the whole IgG antibody for 300 s to record the association phase. Sensors were incubated in the kinetic buffer for 900 s to record the dissociation phase. The spin speed was 1000 rpm for all steps except the antigen loading step which was 400 rpm to control density of the antigen. The temperature of the performed assays was at 30° C. during the association and dissociation phases. The sensor data were baseline subtracted and further analyzed in GatorOne software (version 2.10) to determine the equilibrium dissociation constants (KD) of the antibodies by fitting the signals of the steady states to the 1:1 binding model.

[6] = target: T1, human CD8 on cells (CD8-overexpressing …); assay: flow cytometry, Human Expanded T cells Donor 5, gated on live CD8 T cells (via CD3+CD4-); remark: listed apart in the source
Procedure: as §1

[7] = target: T4, human CD8αα homodimer, recombinant …; assay: BLI steady state analysis, whole antibody, sample kept at pH 7.2, 4C (unstressed)
Procedure: as §2

[8] = target: T1, human CD8 on cells (CD8-overexpressing …); assay: flow cytometry, Human Expanded T cells Donor 5, gated on CD4- T cells, anti-human Fc BV421
Procedure: (§3) Binding was measured by fluorescence from the BV421 fluorophore-conjugated anti-human Fc secondary antibody that recognize the binders. The gMFI was normalized to the gMFI of the secondary antibody in the absence of the anti-CD8α binders.
as §1, with “Cells were stained with each diluted antibody solution for 30 minutes on ice.” left out

[9] = target: T1, human CD8 on cells (CD8-overexpressing …); assay: flow cytometry, Human Expanded T cells Donor 6, gated on CD4- T cells, anti-human Fc BV421
Procedure: as §3
as §1, with “Cells were stained with each diluted antibody solution for 30 minutes on ice.” left out

[10] = target: T3, rhesus macaque CD8 on expanded primary …; assay: flow cytometry, Rhesus Expanded T cells Donor 8, gated on CD4- T cells, anti-human Fc BV421
Procedure: as §3
as §1, with “Cells were stained with each diluted antibody solution for 30 minutes on ice.” left out

[11] = target: T4, human CD8αα homodimer, recombinant …; assay: BLI binding kinetic analysis, whole antibody, sample stressed at pH 8.5, 40 °C, 3 days

Binder | EC50 [1] [nM] | EC50 [2] [nM] | EC50 [3] [µg/mL] | EC50 [4] [nM] | Kd [5] [nM] | EC50 [6] [µg/mL] | Kd [7] [nM] | EC50 (read off the curve) [8] [µg/mL] | EC50 (read off the curve) [9] [µg/mL] | EC50 (read off the curve) [10] [µg/mL] | Kd [11] [nM] | koff [11] [s⁻¹] | kon [11] [M⁻¹ s⁻¹]
B1 | 0.349 | 0.39 | 0.052 | 0.308 | 0.53 | 0.051 | 0.36 | ~0.05 | ~0.05 | ~0.05 | – | – | –
B2 | 0.644 | 1.16 | 0.112 | 0.993 | 2.12 | 0.094 | 1.45 | ~0.1 | ~0.1 | ~0.1 | 2 | 0.00314 | 1.57e+06
